B1: Wnt3a: canonical Wnt ligand (protein, UniProt P56704 19-352, looked up)
Protein Wnt-3a: SYPIWWSLAVGPQYSSLGSQPILCASIPGLVPKQLRFCRNYVEIMPSVAEGIKIGIQECQHQFRGRRWNCTTVHDSLAIFGPVLDKATRESAFVHAIASAGVAFAVTRSCAEGTAAICGCSSRHQGSPGKGWKWGGCSEDIEFGGMVSREFADARENRPDARSAMNRHNNEAGRQAIASHMHLKCKCHGLSGSCEVKTCWWSQPDFRAIGDFLKDKYDSASEMVVEKHRESRGWVETLRPRYTYFKVPTERDLVYYEASPNFCEPNPETGSFGTRDRTCNVSSHGIDGCDLLCCGRGHNARAERRREKCRCVFHWCCYVSCQECTRVYDVHTCK
B2: K86/87 to Arginines: Ngn3 substitution mutant, lysines K86/87 replaced by Arginines, stabilized Ngn3 (protein, UniProt P70661 1-214, looked up, variant K86R K87R)
Neurogenin-3: MAPHPLDALTIQVSPETQQPFPGASDHEVLSSNSTPPSPTLIPRDCSEAEVGDCRGTSRKLRARRGGRNRPKSELALSKQRRSRRRRANDRERNRMHNLNSALDALRGVLPTFPDDAKLTKIETLRFAHNYIWALTQTLRIADHSFYGPEPPVPCGELGSPGGGSNGDWGSIYSPVSQAGNLSPTASLEEFPGLQVPSSPSYLLPGALVFSDFL

Key:
[1] = tested on: stage 4 forward directed differentiating hES culture; experiment: Wnt3a at stage 4 of directed differentiation, RT-qPCR and immunohistochemistry; type: cell-based, human
Experimental: Panel A—Schematic representation of the two different directed differentiation protocols used throughout this series of experiments. The only difference between the two different differentiation protocols is the inclusion of Wnt3a at stage 4 of the directed differentiation protocol as illustrated. Control Cultures and cultures which had Wnt3a administrated at stage 4 were incubated an additional 4 days in maturation medium before RNA extractions and immunohistochemical analysis were performed. Panel B—An RT-qPCR analysis of the two differing conditions. Transcripts assayed are the endodermal marker FoxA2, the pancreatic progenitor marker Pdx1, the TrPC marker Nkx6.1 and the two endocrine markers Glucagon and Insulin. Note two different primer sets were used for insulin.
Panel C-J—Immunohistochemical analysis of stage 5 (day 4) cultures differentiated in the presence and absence of Wnt3a at stage 4. Panels CD and E-F compare the relative levels of C-peptide and Pdx1 respectively between the two differing differentiation protocols. Panels G-J show the combined expression of C-peptide and Pdx1 at both 10× magnification (panels G-H) and 20× Magnification (panels I-J).
To investigate the role of a canonical Wnt input on a PDX1+ progenitor population, Wnt3a was administered to a stage 4 forward directed differentiating hES culture. […] The relative expression of Pdx1 was increased over ˜5 fold over stage 4 cultures lacking the canonical input and relative transcript levels reached ˜3000 fold over hES controls. While Nkx6.1 levels were modest in comparison, only reaching a ˜3.3 fold increase over the stage 4 cultures lacking the canonical input and a relative transcript fold increase of ˜200 over hES controls. […] Both Glucagon and Insulin relative transcript levels were ˜2 fold greater in stage 4 cultures treated with Wnt3a as compared to stage 4 cultures lacking the canonical Wnt drive (FIG. 62 panel B). While there was a ˜5000 fold increase in Glucagon transcript levels and a ˜2500 fold increase in Insulin transcript levels when compared to hES levels. As a means to confirm the accuracy of the relative Insulin transcript levels two different set of primers were used and both primer sets produced similar results. In addition immunohistochemical analysis of these two different reactions was used to confirm the transcript analysis.

[2] = tested on: pluripotent cultures; experiment: Defined (cell conditioned) medium versus Pan-CM, 5 day induction with serum variations and Wnt3a; type: cell-based, human; details: Wnt3a on the first day of the induction, 5 day induction period
Experimental: FIG. 44 (A-B)—Cell conditioned medium improves over the Pan-CM induction of pluripotent cells. Pluripotent cultures were passaged onto matrigel and maintained in the presence of MEF conditioned medium for 3 days to maintain pluripotency. They were next subjected to either Pan-CM or our cell conditioned medium supplemented with either 2% KO serum replacer or low concentrations of FBS as defined in panel A. The addition of Wnt3a on the initial day of differentiation was also assayed. […] Note the occurrence of the trunk progenitor cell is best defined with the loss of NKX6.1.
We next explored the ability of our defined medium informed from the transcriptome and sectretome analysis of the Pan-MEF cultures to induce the differentiation of pluripotent cells towards pancreatic fates. This was performed in short term cultures with incubation periods only lasting 5 days (FIG. 43).

[3] = tested on: H1 hES cultures; experiment: Pan-CM induction with reduced serum levels and Wnt3a on the first day, transcript analysis; type: cell-based, human
Source text: FIG. 16 (A-B)—Reduction of serum levels increases endocrine formation. Pluripotent cultures were passaged onto matrigel and maintained in MEF-conditioned medium for three days before being induced to differentiate by exposure to Pan-CM. Three different conditions were used as outlined in panel A. In the first condition Pan-CM was supplemented with Wnt3a on the first day followed by a 0.2% concentration of FBS for the rest of the reaction. In the second condition Pan-CM was supplemented with 0.2% FBS for the second day on. In the third condition Pan-CM was supplemented with 2% KO serum replacer.
The Pan-CM mediated induction of insulin producing cells from the H1 hES cultures is improved when low concentrations of serum is used. […] Finally it was noted that lower levels of serum reduced to levels of MEOX1 (a gene associated with the mesodermal lineage) observed in these cultures.

[4] = tested on: Ngn3; experiment: Mutational series of Ngn3 in the HepG2 stability assay; type: cell-based
Source text: FIG. 66 (A-B) illustrates a mutational series of Ngn3, designed to stabilize the protein. A. listing of site directed point mutations. B. Testing of five substitution mutants.
Combined, these analyses served to focus us on the presence of lysines in the Helix 1/loop region and highlighted the importance of N-terminal acetylation protection as well. Of note, The K^118LTK^121 motif in the loop is completely conserved in Ngn3 in vertebrates, including teleosts and amphibians, and also between Ngn family members. Our approach to stabilizing Ngn3 is therefore to create an exhaustive point-substitution series of K>R to cover the entire protein (FIG. 66A), and also create deletion mutants of the N-, and C-termini flanking the bHLH domain. Because K121 is completely conserved in the bHLH family group, and positioned so that it aligns with the Helix 1 axis, this residue is likely critical for the folding/binding dynamics of the HLH domain, and mutation of this may likely impact DNA binding/function. Such constraints are not evident for K^118. We will also substitute the T120 residue in the KLTK loop to a Glutamic acid (E) to mimic a possible stabilizing phosphorylation event, which, based on phylogenetic comparisons to MASH1 may be of importance. […]

[5] = Wnt3A added to Pan-CM on the first day, then 0.2% FBS

Molecule	Glucagon and Insulin relative transcript levels compared to stage 4 cultures lacking the canonical Wnt drive [1]	Glucagon transcript levels increase compared to hES levels [1]	Insulin transcript levels increase compared to hES levels [1]	Nkx6.1 increase over the stage 4 cultures lacking the canonical input [1]	Nkx6.1 relative transcript fold increase over hES controls [1]	Pdx1 relative expression over stage 4 cultures lacking the canonical input [1]	Pdx1 relative transcript levels over hES controls [1]	NKX6.1 expression [2]	HNF1-B up regulation [3, 5]	HNF6 up regulation [3, 5]	insulin transcript levels ([3]; Wnt3a on the first day of differentiation in Pan-CM)	Ngn3 protein stability [4]
B1	~2 fold	~5000 fold	~2500 fold	~3.3 fold	~200 fold	> 5 fold	~3000 fold	improved	~55 ×	~85 ×	comparable to the Pan-CM induction with 2% KO serum replacer	–
B2	–	–	–	–	–	–	–	–	–	–	–	lead to stabilization

— patent US20150368616A1, “METHODS FOR INDUCTION OF CELL FATES FROM PLURIPOTENT CELLS” (THE CLEVELAND CLINIC FOUNDATION, priority 2013, published 2015)
